The data set has as its system dCas9 (SpCas9 D10A/H840A) D10A,H840A (Streptococcus pyogenes). Particulars: nanochannel imaging; NEB Buffer 3, BSA, 37 C 60 min; about 16% of labels off-target; PAM not stated.

In the case of “DUF1220 crRNA (with tracrRNA-ATTO647) ; linearized BAC DNA with DUF1220 repeats”, the activity (% target sites labeled) came to 86.

For the origin of these results see patent US20210230664.
